Test results reported in patent publication US20170165339A1.

Target: HLA-A*24 (human)
Experiment: UV peptide-exchange ELISA, yield grade

Binder	peptide exchange yield
VFTSTARAF [… (SEQ ID NO: 183)]	50 to 75%
IFPQFLYQF [… (SEQ ID NO: 186)]	> 75%
IYTMIYRNL [… (SEQ ID NO: 210)]	> 75%
MYDSYWRQF [… (SEQ ID NO: 179)]	> 75%
YFDKVVTL [YFDKVVTL (SEQ ID NO: 215)]	20 to 49%
SYALLTYMI [… (SEQ ID NO: 192)]	> 75%
EYQENFLSF [… (SEQ ID NO: 206)]	50 to 75%
GFFIFNERF [… (SEQ ID NO: 190)]	50 to 75%
IYDDSFIRPVTF [… (SEQ ID NO: 180)]	50 to 75%
RYFKGLVF [RYFKGLVF (SEQ ID NO: 188)]	50 to 75%
WYVNGVNYF [… (SEQ ID NO: 189)]	20 to 49%
VFQNFPLLF [… (SEQ ID NO: 184)]	> 75%
IYKVGAPTI [… (SEQ ID NO: 185)]	50 to 75%
FFPPTRQMGLLF [… (SEQ ID NO: 217)]	> 75%
IYQLDTASI [… (SEQ ID NO: 182)]	50 to 75%
VHIPEVYLI [… (SEQ ID NO: 205)]	50 to 75%
LYLKLWNLI [… (SEQ ID NO: 214)]	50 to 75%
TYTTVPRVAF [… (SEQ ID NO: 172)]	> 75%
QYSSVFKSL [… (SEQ ID NO: 216)]	> 75%
LYLDIINLF [… (SEQ ID NO: 181)]	> 75%
EFGSLHLEFL [… (SEQ ID NO: 194)]	< 20%
TYLRDQHFL [… (SEQ ID NO: 187)]	> 75%
IFIEVFSHF [… (SEQ ID NO: 178)]	50 to 75%
VYPWLGALL [… (SEQ ID NO: 177)]	> 75%
TYTQDFNKF [… (SEQ ID NO: 208)]	50 to 75%
FYSRLLQKF [… (SEQ ID NO: 203)]	50 to 75%
LYLDKATLI [… (SEQ ID NO: 198)]	50 to 75%
YYLEVGKTLI [… (SEQ ID NO: 211)]	> 75%
RFHPTPLLL [… (SEQ ID NO: 193)]	> 75%
VFKASKITF [… (SEQ ID NO: 191)]	50 to 75%
